Source: the DeepSol protein solubility set

Test: soluble on expression in E. coli; label from the status in PepcDB or PDB records

Sequence | soluble on expression in E. coli
MGSDKIHHHHHHMLDNRIIDELKTIVGADNVATDRQDLICYGYDATQMEFLPDAVVHPGSPDEVSAVLKLANREQFPVYPRGAGSGFTGGALPKGGGIVLVVTRLNRILRIDTENLIAEVEPGVVTEQFQLEVEKLGLFYPPDPASLKFSTLGGNVAENAGGPRCVKYGVTRDFVMGLEVVLPSGEIIRTGGETYKGVVGYDLTRLLCGSEGTLGVITKIIFKLLPLPEAKKTMMTIFDSIDGAAKAVSTIIGNKIIPTTLEFMDHATLQCVEKRFNLGIPASGRAVLIIEVDGDRDLIEKQAARIQELIKPLGLVECKIAKDAAESEALWKVRRLVSPSLRDVNPDKFNEDIVVPRSKVPDVIRVIEKIQQKYAIPIVNFGHAGDGNIHVNIMIDKSVAGQEEKAHEAIAEVFQAALDLNGTMSGEHGVGLAKQPYIHLELKPAQVATMQAIKKALDPNNILNPGKMFPV | not soluble
MTASIFSGVIPALMTPCRQDRTPDFDALVRKGKELIADGMSAVVYCGSMGDWPLLTDEQRMEGVERLVKAGIPVIVGTGAVNTASAVAHAVHAQKVGAKGLMVIPRVLSRGSVIAAQKAHFKAILSAAPEIPAVIYNSPYYGFATRADLFFALRAEHKNLVGFKEFGGPADMRYAAENITSRDDEVTLMIGVDTAVVHGFVNCGATGAITGIGNVLPKEVIHLCKLSQAAAKGDADARARALELEQALAVLSSFDEGPDLVLYFKYMMVLKGDKEYTLHFNETDALTDSQRGYVEAQFKLFNSWYADWSKLPGAVQTCKAA | soluble
MGSDKIHHHHHHMKEVVKLVLLGERQNSLNLSLYFNKYPPTIIYPEVLEDRNKKLASPSGSQRKISLLVLNQGVLQFNKIKETIEKSLPIETKVKLPQKAYELYKKYYQDYTDMLNSLHAITGKFKTQSRLVVGLGDESVYETSIRLLRNYGVPYIPGSAIKGVTRHLTYYVLAEFINEGNDFYKRAKTVQDAFMKGDPKEILSNAKVPERCSRLCKEFLRIFGEKKVPEIIDELIRIFGTQKKEGEVVFFDAIPIAEEIADKPILELDIMNPHYGPYYQSGEKNVPPPGDWYDPIPIFFLTVPKDVPFLVAVGGRDRELTEKAFSLVKLALRDLGVGAKTSLGYGRLVEYV | not soluble
MSELVVIREMQEKDILALDTQFVQQGWPSRQEILMNYLEEQLVKQRTVFVAEKKATLLGYVTLLPLAKEGPFKNLYPEIADFNVFLPFQKQGVGRLLLNRAENVAKSYADTVSLGVGLHPGYGAAQRLYIKQGYVPDGSGVWFQNKQLKPNERCVNDDELVLYLSKKL | not soluble
MTAPVPTCNMSGNPINLHKLTLIMPLPSPEARQFSLKLQTLIAEKIGKHGNWIPFSRFMELVLYAPQYGYYTGGSHKIGNTGDFITAPTLTSLFAQTLARQLQELLSQTAGNIYEFGAGTGQLAADLLGSISDGISRYYIIEISPELAARQKNLIQARAPEASQKVVHLTALPEAFDGIIIGNEVLDAMPVEIVRKNEGGSFEHVGVCLDNDRFTYSARPLHDLQLSALASLYFPQTDYPYTSELHPQQYAFIRTLASRLEHGCMIFIDYGFDAAQYYHPQRNQGTLIGHYRHHIIHNPFDFIGLADLTAHVNFTDIAQAGTDAGLDLIGYLPQSHFLLNLGITELLAQTGKTDSAAYICEAAAVQKLIDQHEMGELFKVIAFGKNIGIDWAGFRFGDICHKL | not soluble
RMPGLPDIAFTGDGQMTKHEIRALTLCALAPAAGELLWDVGGGSGTVAIEWMRTHPLCRAVTFERSAARVDQIESNAAALGVPSLAVFGDAPAAFEDVPPELSTPDAIFVGGGVTQDGLLDECWSRLRVGGRMVVNAVTAESEALLLQWFSNCGGQLRKFQVYRGEPLGGFTAWRPQLPVAQWSVTKQSKGDAA | not soluble
MGSDKIHHHHHHMINPQWLHTFAVLVEKGNFTRTAEAIGITQAAVSQHISRLEEEYGTLFLRRPRQLEITPIGENLLTYVKDVECAQKRLQQKLIHDDAEVGDISLITPGSIGLTLFPLLIELQQAFPALNIRHRFAPDSEIVASVLANEHEIGMVTLKPSDPRIHSTHFTEEPLELVVPACHKQNEWVDLQRLGFISHPDGEAMATRLLSRKYPSNPGIQDIPCKGFTNQISLILEPVAKGLGFTVIPQYARKAFERQQDIYVVECGSQVVDTIWLIHRAEWPLSRRAQKAITFLKGKI | not soluble
MMKDLNLSNSLFKGYNDKHGLMICGYEWGWSKADEAAYVAGEYKLPENKIDHTFANKSLYFGEQAKKWRYDNTIKNWFEMWGHPLDENGLGGAFEKSLVQTNWAATQGNTIDNPDKFTQPEHIDNFLYHIEKLRPKVILFMGSRLADFLNNQNVLPRFEQLVGKQTKPLETVQKEFDGTRFNVKFQSFEDCEVVCFPHPSASRGLSYDYIALFAPEMNRILSDFKTTRGFK | not soluble
MFYPDPFDVIIIGGGHAGTEAAMAAARMGQQTLLLTHNIDTLGQMSCNPAIGGIGKGHLVKEVDALGGLMAKAIDQAGIQFRILNASKGPAVRATRAQADRVRYRQAVRTALENQPNLMIFQQAVEDLIVENDRVVGAVTQMGLKFRAKAVVLTVGTFLDGKIHIGLDNYSGGRAGDPPSIPLSRRLRELPLRVGRLKTGTPPRIDARTIDFSVLAQQHGDNPMPVFSFMGNASLHPQQVPCYITHTNEKTHDVIRSNLDRSPMYAGVIEGVGPRYCPSIEDKVMRFADRNQHQIFLEPEGLTSNEIYPNGISTSLPFDVQMQIVRSMQGMENAKIVRPGYAIEYDFFDPRDLKPTLESKFIQGLFFAGQINGTTGYEEAAAQGLLAGLNAARLSADKEGWAPARSQAYLGVLVDDLCTLGTKEPYRMFTSRAEYRLMLREDNADLRLTEIGRELGLVDDERWARFNEKLENIERERQRLKSTWVTPSAEAAAEVNAHLTAPLSREASGEDLLRRPEMTYEKLTTLTPFAPALTDEQAAEQVEIQVKYEGYIARQQDEIEKQLRNENTLLPATLDYRQISGLSNEVIAKLNDHKPASIGQASRISGVTPAAISILLVWLKKQGMLRRSA | not soluble
SDFVNNLDTDTSLSILSCLDDPSDIVRASAVSRSWRQFVVKYSLSKNLCLKLFHQLSNVDHIIETSNDRNGESSEAGSSSLMDTRLLEKEHRAFALLARGCMSSPIESCIADAIRASSTDNYPVESILNTLEKRDRIGRTPSYWSSTGQHKTTVPESLLYKLIGDLCLITEVSIHPFQAYFQRGHPIYSSHYVRFRLGHEKDNSPHYNNSQDKKGEPGKSSIESNYVWTYTSQEFSMAQENRLQSFQLPEPVLCIGGYLLVEFLGRVQTQEMDGQYYICVSHVKVEGRSLAKSFRVENVDDNGKFGLKVLSYNDPKKMEEMDAEAGQDMDAEAGQSQLRNLEQLLNLLHRHPLDVVDYVWPDESDDEYAESEDEAEP | soluble
MAHHHHHHMNKMKSTKIENPKYKLMKLIGKGTFGKVYSAIDMSTQEAVAIKRSPKWRNKVSREVDLLKKMNGSTNIVKIKSVFYTTTKKGYRIQNIVFKYMTYSLGRYIRMKKQEKRENNQICIGIKDLHKNDFAHRDLKPDNILIDLDSSNIKIEICDLGSAKKVQRNIISIPYICSRWYRAPELLCGSMFYTTEVDLWSLGCIIFELINLCPLFPGKFKKDEYSEECSQIINLIEVIGSPQMSFFENIKDHTSKKNTLLIKELCELNIKPLCWDEILGNILEIENPNERLNIDAVLSNPYFSTLNK | not soluble
MNDHLKRGNLLWEGSRMFLPEHKQSLLERKRLKQKLQKPILDPDKLEEMNQTLCAAMEFAQDITVSCFQDGEIVCCTGKICRYEEFEKAVWIKGDEDQLYKLKLDQVLDI | not soluble
PETKTGKKILLAAPRGYCAGVDRAVETVERALEEYGAPIYVRKEIVHNRYVVDTLAEKGAIFVNEASEAPEGANMVFSAHGVSPMVHEEAAAKNIKAIDAACPLVTKVHKEVQRFDKQGFHILFIGHEGHEEVEGTMGHSVEKTHLVDGVAGIATLPEFLNDEPNLIWLSQTTLSVDETMEIVRELKVKFPQLQDPPSDDICYATQNRQVAVKAIAERCELMIVVGSRNSSNSVRLVEVAKQNGADNAYLVDYAREIDPAWFEGVETIGISSGASVPEILVQGVIERLAEFGYD | not soluble
SASLDRVKVLVLGDSGVGKSSLVHLLCQNQVLGNPSWTVGCSVDVRVHDYKEGTPEEKTCYIELWDVGGSVGSASSVKSTRAVFYNSVNGIIFVHDLTNKKSSQNLRRWSLEALNRDLVPTGVLVTNGDYDQEQFADNQIPLLVIGTKLDQIHETKRHEVLTTTAFLAEDFNPEEINLDCTNPRYLAAGSSNAVKLSRFFDKVIEKRYFLREGNQIPGFPDRKRFGAGTLKSLHYD | soluble
